# Measured values taken from publication PMC10786891, “Massively parallel profiling of RNA-targeting CRISPR-Cas13d”.
# T1: EsCas13d, nuclease-dead (Eubacterium siraeum, UniProt B0MS50, R295A;H300A;R849A;H854A)
# T1 sequence: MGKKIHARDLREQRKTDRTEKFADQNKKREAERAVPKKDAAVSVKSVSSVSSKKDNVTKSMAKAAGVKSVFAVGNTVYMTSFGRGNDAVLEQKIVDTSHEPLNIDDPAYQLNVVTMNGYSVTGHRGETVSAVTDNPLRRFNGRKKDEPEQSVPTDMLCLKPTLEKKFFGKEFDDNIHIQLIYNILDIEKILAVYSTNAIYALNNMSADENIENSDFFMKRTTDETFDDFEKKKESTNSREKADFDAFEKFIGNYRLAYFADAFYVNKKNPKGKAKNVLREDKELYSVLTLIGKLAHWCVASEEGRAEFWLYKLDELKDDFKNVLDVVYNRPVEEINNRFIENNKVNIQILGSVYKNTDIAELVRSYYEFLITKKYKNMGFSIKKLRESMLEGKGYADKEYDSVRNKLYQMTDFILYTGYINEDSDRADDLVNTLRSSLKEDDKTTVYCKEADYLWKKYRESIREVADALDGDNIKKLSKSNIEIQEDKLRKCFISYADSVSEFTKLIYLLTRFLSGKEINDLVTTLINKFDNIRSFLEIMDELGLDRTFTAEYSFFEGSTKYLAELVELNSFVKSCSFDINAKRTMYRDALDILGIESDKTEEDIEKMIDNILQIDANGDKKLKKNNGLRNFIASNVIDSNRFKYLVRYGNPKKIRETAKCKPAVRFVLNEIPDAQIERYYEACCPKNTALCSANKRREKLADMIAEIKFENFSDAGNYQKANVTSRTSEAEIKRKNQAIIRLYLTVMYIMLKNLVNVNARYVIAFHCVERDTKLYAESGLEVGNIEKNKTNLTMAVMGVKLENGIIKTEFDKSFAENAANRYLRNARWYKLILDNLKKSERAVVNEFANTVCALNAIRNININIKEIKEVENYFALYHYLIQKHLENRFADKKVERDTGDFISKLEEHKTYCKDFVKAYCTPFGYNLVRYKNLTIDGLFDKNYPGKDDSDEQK
# B1: target 1 insC 3' of 22,insU 3' of 6 (mixed)
# RNA 1: CACCCGUGCAAAAAUGCAGGGGUCUAAAACUGAGCGGAUAACCUCUCUAUGG
# RNA 2: GGGAAUGGAUCCACAUCUACGAAUUCGUACCCAUAGAGAGGUUAUCCUGCUCACCGAGAUCGGAAGAGCACACGU
# B2: target 1 insU 3' of 22,insU 3' of 4 (mixed)
# RNA 1: CACCCGUGCAAAAAUGCAGGGGUCUAAAACUGAGCGGAUAACCUCUCUAUGG
# RNA 2: GGGAAUGGAUCCACAUCUACGAAUUCGUACUCAUAGAGAGGUUAUCCGCUUCACCGAGAUCGGAAGAGCACACGU
# B3: target 3 insU 3' of 6,insG 3' of 6 (mixed)
# RNA 1: CACCCGUGCAAAAUUGCAGGGGUCUAAAACGACCUGAAUAUUUCAGAUCAAA
# RNA 2: GGGAAUGGAUCCACAUCUACGAAUUCGUUUUUGAUCUGAAAUAUUCUGAGGUCUGCAGAUCGGAAGAGCACACGU
# B4: target 3 G3C,G4A (mixed)
# RNA 1: CACCCGUGCAAAAUUGCAGGGGUCUAAAACGACCUGAAUAUUUCAGAUCAAA
# RNA 2: GGGAAUGGAUCCACAUCUACGAAUUCGUUUUUGAUCUGAAAUAUUCAACUCUGCAGAUCGGAAGAGCACACGU
# B5: target 3 U2G,A13U (mixed)
# RNA 1: CACCCGUGCAAAAUUGCAGGGGUCUAAAACGACCUGAAUAUUUCAGAUCAAA
# RNA 2: GGGAAUGGAUCCACAUCUACGAAUUCGUUUUUGAUCUGUAAUAUUCAGGGCUGCAGAUCGGAAGAGCACACGU
# B6: target 3 C1U,A5U (mixed)
# RNA 1: CACCCGUGCAAAAUUGCAGGGGUCUAAAACGACCUGAAUAUUUCAGAUCAAA
# RNA 2: GGGAAUGGAUCCACAUCUACGAAUUCGUUUUUGAUCUGAAAUAUUCUGGUUUGCAGAUCGGAAGAGCACACGU
# B7: target 3 insC 3' of 22,insG 3' of 5 (mixed)
# RNA 1: CACCCGUGCAAAAUUGCAGGGGUCUAAAACGACCUGAAUAUUUCAGAUCAAA
# RNA 2: GGGAAUGGAUCCACAUCUACGAAUUCGUUUCUUGAUCUGAAAUAUUCAGGGUCUGCAGAUCGGAAGAGCACACGU
# B8: target 3 insA 3' of 14,insU 3' of 5 (mixed)
# RNA 1: CACCCGUGCAAAAUUGCAGGGGUCUAAAACGACCUGAAUAUUUCAGAUCAAA
# RNA 2: GGGAAUGGAUCCACAUCUACGAAUUCGUUUUUGAUCUGAAAAUAUUCAUGGUCUGCAGAUCGGAAGAGCACACGU
# B9: target 3 complement block 5-7 (mixed)
# RNA 1: CACCCGUGCAAAAUUGCAGGGGUCUAAAACGACCUGAAUAUUUCAGAUCAAA
# RNA 2: GGGAAUGGAUCCACAUCUACGAAUUCGUUUUUGAUCUGAAAUAUAGUGGUCUGCAGAUCGGAAGAGCACACGU
# B10: target 3 insC 3' of 22,insG 3' of 2 (mixed)
# RNA 1: CACCCGUGCAAAAUUGCAGGGGUCUAAAACGACCUGAAUAUUUCAGAUCAAA
# RNA 2: GGGAAUGGAUCCACAUCUACGAAUUCGUUUCUUGAUCUGAAAUAUUCAGGUGCUGCAGAUCGGAAGAGCACACGU
# B11: target 3 insA 3' of 21,insA 3' of 2 (mixed)
# RNA 1: CACCCGUGCAAAAUUGCAGGGGUCUAAAACGACCUGAAUAUUUCAGAUCAAA
# RNA 2: GGGAAUGGAUCCACAUCUACGAAUUCGUUUUAUGAUCUGAAAUAUUCAGGUACUGCAGAUCGGAAGAGCACACGU
# B12: target 3 insG 3' of 11,insA 3' of 6 (mixed)
# RNA 1: CACCCGUGCAAAAUUGCAGGGGUCUAAAACGACCUGAAUAUUUCAGAUCAAA
# RNA 2: GGGAAUGGAUCCACAUCUACGAAUUCGUUUUUGAUCUGAAAGUAUUCAAGGUCUGCAGAUCGGAAGAGCACACGU
# B13: target 3 insC 3' of 18,insC 3' of 11 (mixed)
# RNA 1: CACCCGUGCAAAAUUGCAGGGGUCUAAAACGACCUGAAUAUUUCAGAUCAAA
# RNA 2: GGGAAUGGAUCCACAUCUACGAAUUCGUUUUUGACUCUGAAACUAUUCAGGUCUGCAGAUCGGAAGAGCACACGU
# B14: target 3 insA 3' of 10,insA 3' of 2 (mixed)
# RNA 1: CACCCGUGCAAAAUUGCAGGGGUCUAAAACGACCUGAAUAUUUCAGAUCAAA
# RNA 2: GGGAAUGGAUCCACAUCUACGAAUUCGUUUUUGAUCUGAAAUAAUUCAGGUACUGCAGAUCGGAAGAGCACACGU
# B15: target 3 insA 3' of 22,insA 3' of 2 (mixed)
# RNA 1: CACCCGUGCAAAAUUGCAGGGGUCUAAAACGACCUGAAUAUUUCAGAUCAAA
# RNA 2: GGGAAUGGAUCCACAUCUACGAAUUCGUUUAUUGAUCUGAAAUAUUCAGGUACUGCAGAUCGGAAGAGCACACGU
# B16: target 3 del2 (mixed)
# RNA 1: CACCCGUGCAAAAUUGCAGGGGUCUAAAACGACCUGAAUAUUUCAGAUCAAA
# RNA 2: GGGAAUGGAUCCACAUCUACGAAUUCGUUUUUGAUCUGAAAUAUUCAGGCUGCAGAUCGGAAGAGCACACGU
# B17: target 3 C6U,U7A (mixed)
# RNA 1: CACCCGUGCAAAAUUGCAGGGGUCUAAAACGACCUGAAUAUUUCAGAUCAAA
# RNA 2: GGGAAUGGAUCCACAUCUACGAAUUCGUUUUUGAUCUGAAAUAUAUAGGUCUGCAGAUCGGAAGAGCACACGU
# B18: target 3 U2G,A12C (mixed)
# RNA 1: CACCCGUGCAAAAUUGCAGGGGUCUAAAACGACCUGAAUAUUUCAGAUCAAA
# RNA 2: GGGAAUGGAUCCACAUCUACGAAUUCGUUUUUGAUCUGACAUAUUCAGGGCUGCAGAUCGGAAGAGCACACGU
# B19: target 3 del2,del8 (mixed)
# RNA 1: CACCCGUGCAAAAUUGCAGGGGUCUAAAACGACCUGAAUAUUUCAGAUCAAA
# RNA 2: GGGAAUGGAUCCACAUCUACGAAUUCGUUUUUGAUCUGAAAUAUCAGGCUGCAGAUCGGAAGAGCACACGU
# B20: target 3 U21G,U22A (mixed)
# RNA 1: CACCCGUGCAAAAUUGCAGGGGUCUAAAACGACCUGAAUAUUUCAGAUCAAA
# RNA 2: GGGAAUGGAUCCACAUCUACGAAUUCGUUAGUGAUCUGAAAUAUUCAGGUCUGCAGAUCGGAAGAGCACACGU
# B21: target 3 U10C (mixed)
# RNA 1: CACCCGUGCAAAAUUGCAGGGGUCUAAAACGACCUGAAUAUUUCAGAUCAAA
# RNA 2: GGGAAUGGAUCCACAUCUACGAAUUCGUUUUUGAUCUGAAACAUUCAGGUCUGCAGAUCGGAAGAGCACACGU
# B22: target 3 U2G,A11C (mixed)
# RNA 1: CACCCGUGCAAAAUUGCAGGGGUCUAAAACGACCUGAAUAUUUCAGAUCAAA
# RNA 2: GGGAAUGGAUCCACAUCUACGAAUUCGUUUUUGAUCUGAACUAUUCAGGGCUGCAGAUCGGAAGAGCACACGU
# B23: target 3 insG 3' of 22,insU 3' of 3 (mixed)
# RNA 1: CACCCGUGCAAAAUUGCAGGGGUCUAAAACGACCUGAAUAUUUCAGAUCAAA
# RNA 2: GGGAAUGGAUCCACAUCUACGAAUUCGUUUGUUGAUCUGAAAUAUUCAGGUUCUGCAGAUCGGAAGAGCACACGU
# B24: target 3 insC 3' of 5 (mixed)
# RNA 1: CACCCGUGCAAAAUUGCAGGGGUCUAAAACGACCUGAAUAUUUCAGAUCAAA
# RNA 2: GGGAAUGGAUCCACAUCUACGAAUUCGUUUUUGAUCUGAAAUAUUCACGGUCUGCAGAUCGGAAGAGCACACGU
# B25: target 3 insA 3' of 20,insU 3' of 19 (mixed)
# RNA 1: CACCCGUGCAAAAUUGCAGGGGUCUAAAACGACCUGAAUAUUUCAGAUCAAA
# RNA 2: GGGAAUGGAUCCACAUCUACGAAUUCGUUUUUAGUAUCUGAAAUAUUCAGGUCUGCAGAUCGGAAGAGCACACGU
# B26: target 3 del8 (mixed)
# RNA 1: CACCCGUGCAAAAUUGCAGGGGUCUAAAACGACCUGAAUAUUUCAGAUCAAA
# RNA 2: GGGAAUGGAUCCACAUCUACGAAUUCGUUUUUGAUCUGAAAUAUCAGGUCUGCAGAUCGGAAGAGCACACGU
# B27: target 3 del1 (mixed)
# RNA 1: CACCCGUGCAAAAUUGCAGGGGUCUAAAACGACCUGAAUAUUUCAGAUCAAA
# RNA 2: GGGAAUGGAUCCACAUCUACGAAUUCGUUUUUGAUCUGAAAUAUUCAGGUUGCAGAUCGGAAGAGCACACGU
# B28: target 3 insG 3' of 9,insC 3' of 3 (mixed)
# RNA 1: CACCCGUGCAAAAUUGCAGGGGUCUAAAACGACCUGAAUAUUUCAGAUCAAA
# RNA 2: GGGAAUGGAUCCACAUCUACGAAUUCGUUUUUGAUCUGAAAUAGUUCAGGCUCUGCAGAUCGGAAGAGCACACGU
# Molecular target: T1, EsCas13d, nuclease-dead
# Assay: crRNA (strand 1, pre-loaded); Mg2+; 40 mM Tris-HCl pH 7.5, 150 mM NaCl, 6 mM MgCl2, 1 mM DTT, 0.1% Tween-20, 0.2 mg/ml BSA; 25 C; 10 min per concentration, then washed
# Conditions: tags: His6-TwinStrep-SUMO cleaved; N-terminal SNAP kept (SNAP-Surface 488); label: 3' end held by stalled T7 RNA polymerase
row,Binder,Kd
1,B1,20 ± 2 nM
2,B2,32 ± 5 nM
3,B3,8.7 ± 0.95 nM
4,B4,6.6 ± 0.65 nM
5,B5,46.5 ± 13.5 nM
6,B6,12.9 ± 3.05 nM
7,B7,93.5 ± 26 nM
8,B8,69.5 ± 12.5 nM
9,B9,39.1 ± 2.9 nM
10,B10,59 ± 11 nM
11,B11,30.3 ± 2.6 nM
12,B12,91.5 ± 22 nM
13,B13,37 ± 5 nM
14,B14,56 ± 8.5 nM
15,B15,24.9 ± 2.35 nM
16,B16,9.1 ± 0.7 nM
17,B17,40 ± 4.25 nM
18,B18,23.5 ± 4 nM
19,B19,47 ± 8.5 nM
20,B20,57.5 ± 15.5 nM
21,B21,88 ± 22 nM
22,B22,63 ± 25.5 nM
23,B23,68 ± 26 nM
24,B24,19.2 ± 1.75 nM
25,B25,62.5 ± 14.5 nM
26,B26,~114 nM
27,B27,27.1 ± 2.55 nM
28,B28,42 ± 7 nM
